Measurements: US20030100094A1 (NEW ENGLAND BIOLABS, published 2003)
Numbering of substitutions follows the chain as printed. Names may count otherwise. Values belong to the binder of their own block, whether it stands above or below them.

Key:
[1] = molecular target: T1, BbvCI restriction endonuclease subunit R2 (wild type, 285 aa, 32 kDa) (Bacillus brevis); assay: SDS-PAGE of purified enzyme (subunits co-purify)
T1 construct: Recombinant, co-expressed with the R1 subunit in E. coli; also called BbvCI-R2; subunit 2
T1 chain: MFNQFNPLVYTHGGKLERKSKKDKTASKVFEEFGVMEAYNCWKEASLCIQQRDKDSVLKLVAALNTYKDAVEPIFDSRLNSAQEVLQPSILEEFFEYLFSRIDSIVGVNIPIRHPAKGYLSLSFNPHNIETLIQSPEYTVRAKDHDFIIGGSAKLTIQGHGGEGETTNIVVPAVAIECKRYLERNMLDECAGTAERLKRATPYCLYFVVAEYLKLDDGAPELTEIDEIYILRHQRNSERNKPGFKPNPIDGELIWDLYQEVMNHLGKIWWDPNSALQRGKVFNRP
Source text: (§1) FIG. 9. SDS-PAGE analysis of purified wild type R.BbvCI restriction endonuclease (lanes 2-3: prep. ‘Dan’; lanes 4-6: prep. ‘Diane’), and of purified N.BbvCI nicking endonucleases 2-12 (lanes 7-9), and 1-37 (lanes 10-12). Lane 1 (far left) contains molecular weight markers. All the enzymes preps migrate as two bands of roughly equal intensity signifying that the enzymes are heterodimers with 1:1 subunit stoichiometry.

[2] = molecular target: T2, BbvCI subunit R2 E177G (mutated subunit of nicking enzyme N.BbvCI 2-12) (Bacillus brevis); assay: SDS-PAGE of purified enzyme (subunits co-purify)
T2 construct: The R2 subunit of enzyme mutant 2-12 (R1+:R2E177G), also called Nb.BbvCI; also called ECK->GCK
T2 chain: T1 chain with E177G
Source text: as §1

binding result [1]: binds
binding result [2]: binds
B1: BbvCI restriction endonuclease subunit R1 (wild type, 275 aa, 31 kDa) (enzyme)
chain: MINEDFFIYEQLSHKKNLEQKGKNAFDEETEELVRQAKSGYHAFIEGINYDEVTKLDLNSSVAALEDYISIAKEIEKKHKMFNWRSDYAGSIIPEFLYRIVHVATVKAGLKPIFSTRNTIIEISGAAHREGLQIRRKNEDFALGFHEVDVKIASESHRVISLAVACEVKTNIDKNKLNGLDFSAERMKRTYPGSAYFLITETLDFSPDENHSSGLIDEIYVLRKQVRTKNRVQKAPLCPSVFAELLEDILEISYRASNVKGHVYDRLEGGKLIRV
notes: Recombinant, co-expressed with the R2 subunit in E. coli; also called BbvCI-R1; subunit 1

binding result [1]: binds
B2: BbvCI subunit R1 E167G (mutated subunit of nicking enzyme N.BbvCI 1-37) (enzyme)
chain: B1 chain with E167G
notes: The R1 subunit of enzyme mutant 1-37 (R1E167G:R2+), also called Nt.BbvCI; also called EVK->GVK
